# T1: monkey LAG-3 (full length, on the cell surface) (monkey, UniProt P18627 24-525 (human entry))
# T1 construct: also called HEK293-cLAG-3; monkey LAG-3 protein on the cell surface
# T1 chain: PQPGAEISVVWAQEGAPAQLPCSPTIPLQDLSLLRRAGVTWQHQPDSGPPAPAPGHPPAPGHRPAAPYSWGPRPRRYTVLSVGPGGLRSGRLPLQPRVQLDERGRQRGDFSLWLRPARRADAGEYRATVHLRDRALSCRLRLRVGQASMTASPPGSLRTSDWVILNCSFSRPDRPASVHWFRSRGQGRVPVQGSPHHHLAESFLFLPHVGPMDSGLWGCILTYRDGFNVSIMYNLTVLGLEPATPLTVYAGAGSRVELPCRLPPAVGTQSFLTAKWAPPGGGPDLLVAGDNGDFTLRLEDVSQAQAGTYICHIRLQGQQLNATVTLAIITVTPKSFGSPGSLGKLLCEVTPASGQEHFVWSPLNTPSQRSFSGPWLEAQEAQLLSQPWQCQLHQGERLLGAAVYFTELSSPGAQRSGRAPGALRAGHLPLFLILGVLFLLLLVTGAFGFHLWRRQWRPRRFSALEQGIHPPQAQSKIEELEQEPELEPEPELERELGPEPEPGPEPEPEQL
# T2: human LAG-3 (full length, on the cell surface) (human, UniProt P18627 23-525)
# T2 construct: Full-length human LAG-3 expressed on cells; also called HEK293-hLAG-3; HEK293 cells transfected with LAG-3 gene
# T2 sequence: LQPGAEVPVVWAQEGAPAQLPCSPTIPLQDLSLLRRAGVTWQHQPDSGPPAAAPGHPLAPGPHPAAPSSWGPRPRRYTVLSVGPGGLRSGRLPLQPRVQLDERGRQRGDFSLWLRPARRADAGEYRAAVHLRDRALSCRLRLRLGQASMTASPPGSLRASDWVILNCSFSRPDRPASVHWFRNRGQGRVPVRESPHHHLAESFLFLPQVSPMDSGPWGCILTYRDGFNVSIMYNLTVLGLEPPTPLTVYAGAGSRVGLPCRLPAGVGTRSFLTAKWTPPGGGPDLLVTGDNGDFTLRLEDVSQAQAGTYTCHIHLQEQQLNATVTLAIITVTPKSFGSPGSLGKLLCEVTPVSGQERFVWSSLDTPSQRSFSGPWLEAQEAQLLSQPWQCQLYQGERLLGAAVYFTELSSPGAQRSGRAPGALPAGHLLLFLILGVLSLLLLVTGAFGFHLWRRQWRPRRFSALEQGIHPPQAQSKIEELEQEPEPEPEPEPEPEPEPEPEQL
# T3: human LAG-3 protein with hFc tag (hLAG-3-hFc protein) (human, UniProt P18627 23-450)
# T3 construct: also called immunogen 1; LAG-3 extracellular domain protein; not shown: human IgG Fc fragment (hFc) of the pCpC vector
# T3 sequence: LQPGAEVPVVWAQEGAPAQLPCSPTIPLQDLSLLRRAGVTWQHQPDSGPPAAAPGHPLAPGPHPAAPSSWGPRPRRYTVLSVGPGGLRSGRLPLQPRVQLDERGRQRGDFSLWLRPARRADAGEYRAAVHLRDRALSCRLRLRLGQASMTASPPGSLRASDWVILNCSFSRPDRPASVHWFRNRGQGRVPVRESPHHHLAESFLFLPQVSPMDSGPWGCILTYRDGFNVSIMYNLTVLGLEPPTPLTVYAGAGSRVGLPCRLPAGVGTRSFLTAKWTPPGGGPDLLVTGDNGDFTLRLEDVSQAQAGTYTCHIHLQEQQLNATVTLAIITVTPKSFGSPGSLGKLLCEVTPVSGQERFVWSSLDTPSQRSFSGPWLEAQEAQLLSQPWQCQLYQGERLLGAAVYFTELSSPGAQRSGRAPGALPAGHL
# T4: LAG-3-hFc protein (human LAG-3 extracellular region with hFc tag) (human, UniProt P18627 23-450)
# T4 construct: also called hLAG-3-hFc; LAG-3 protein; not shown: human IgG Fc fragment (hFc) of the pCpC vector
# T4 sequence: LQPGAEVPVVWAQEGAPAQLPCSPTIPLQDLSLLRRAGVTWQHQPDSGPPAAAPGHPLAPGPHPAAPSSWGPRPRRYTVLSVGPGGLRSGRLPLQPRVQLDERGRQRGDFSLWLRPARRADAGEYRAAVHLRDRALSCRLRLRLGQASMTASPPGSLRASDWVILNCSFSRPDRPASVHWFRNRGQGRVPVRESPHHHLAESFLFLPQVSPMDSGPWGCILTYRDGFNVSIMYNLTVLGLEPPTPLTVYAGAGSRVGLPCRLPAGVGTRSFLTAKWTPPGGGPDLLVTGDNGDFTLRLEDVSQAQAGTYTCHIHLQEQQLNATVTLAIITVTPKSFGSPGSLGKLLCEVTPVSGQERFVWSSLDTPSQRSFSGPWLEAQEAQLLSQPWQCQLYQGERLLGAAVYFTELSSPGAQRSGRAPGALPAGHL
# Key:
# [1] = target: T1, monkey LAG-3 (full length, on the cell …); assay: FACS, HEK293-cLAG-3; 0.013 nM
# From the text: (§1) The pIRES plasmid with the monkey-derived full-length gene was transfected into the HEK293 cell line to construct a HEK293 stable cell line containing monkey LAG-3 (herein referred to as HEK293-cLAG-3 stable cell line). The HEK293-hLAG-3 stable cell line and HEK293-cLAG-3 stable cell line were expanded in a T-75 cell culture flask to a 90% confluence. The medium was aspirated, and the cells were washed with HBSS (Hanks' Balanced Salt Solution) 1-2 times, then treated with a enzyme-free cell dissociation fluid (Versene solution: Life technology) and the cells were collected. The cells were washed with HBSS buffer for 1-2 times. After counted, the cells were diluted with HBSS to 1-2×10⁶ cells per ml, added with 1% goat serum blocking solution, incubated on ice for 20-30 minutes, and then washed with HBSS for 2 times by centrifugation. The collected cells were suspended in the FACS buffer (HBSS+1% BSA) to 2×10⁶ cells/ml, added as 100 microliters per well to a 96-well FACS reaction plate, added with 100 microliters per well of the antibody sample to be tested, incubated on ice for 1-2 hours. The plate was washed twice with the FACS buffer by centrifugation, added with 100 microliters of fluorescent (Alexa 488)-labeled secondary antibodies per well, and incubated on ice for 0.5-1.0 hours. The plate was washed 2-3 times with FACS buffer by centrifugation, added with 100 μl fixative solution (4% Paraformaldehyde) per well to suspend the cells. 5-10 minutes later, it was washed 1-2 times with FACS buffer by centrifugation. The cells were suspended with 100 microliters of FACS buffer, FACS (FACSCalibur, BD) was used for detection and the results were analyzed.
# [2] = target: T2, human LAG-3 (full length, on the cell …); assay: FACS, HEK293-hLAG-3; 0.320 nM
# From the text: as §1
# [3] = target: T3, human LAG-3 protein with hFc tag …; assay: FACS, blocks LAG-3-hFc binding to MHC II on Raji; 2.469 nM
# Protocol: (§2) The FACS reaction plate incubating the Raji cells was centrifuged to discard the supernatant. The above mixture was added as 100 μl per well to Raji cells and incubated on ice for 1-2 hours. The plate was washed twice with blocking solution (PBS, 2% fetal bovine serum) by centrifugation, added with 100 microliters of fluorescent (Alexa 488)-labeled secondary antibodies per well, and incubated on ice for 1.0 hours. The plate was washed 2-3 times by centrifugation with blocking solution (PBS, 2% fetal bovine serum), added with 100 microliters of PBS per well to suspend cells, and detected using FACS (FACS Calibur, BD) and the results were analyzed. Wherein, the IgG control was murine IgG, and the data in the table is the inhibition rate (%).
# [4] = target: T2, human LAG-3 (full length, on the cell …); assay: FACS, HEK293-hLAG-3; 0.000 nM
# From the text: as §1
# [5] = target: T4, LAG-3-hFc protein (human LAG-3 …); assay: FACS, inhibition of LAG-3-hFc binding to MHC II on Raji cells, antibody 0.823 nM
# Protocol: as §2
Binder,Mean fluorescence intensity [1] [MFI],Mean fluorescence intensity [2] [MFI],Inhibition rate (%) [3] [%],Mean fluorescence intensity [4] [MFI],Inhibition rate (%) [5] [%]
"405B8H3 (mouse antibody purified from hybridoma) (antibody, V domains shown, also called mAb103-405B8H3; 405B81-13) VH: QVQLQQSGAELVRPGASVTLSCKASGYTFTDYEMHWVKQTPVHGLEWIGATDPETGNSAYNQKFKGKAIMTADKSSSTAYMELRSLTSEDSAVYYCISTGWNDWGQGTSLTVSS VL: DIKMTQSPSSMYASLGERVTITCKASQDINSYLSWFQQKPGKSPKTLIYRADRLLDGVPSRFSGSGSGQDYSLTISSLEYGDMGIYYCLQYDEFPYTFGGGTKLEIK",4.2,24.7,41.9,3.7,
"105F1E10 (mouse antibody purified from hybridoma) (antibody, V domains shown, also called mAb009-105F1E10) VH: EVQLQQSGPELVKPGASVKMSCRASGYTFTDFKMHWMKQSHGKSLEWIGYIAPNNGGTAYNQKFRGKATLTVNESSNTAYMELRSLTSEDSAVYYCVDWDDVDYWGQGTTLTVSS VL: DIKMTQSPSSMYASLGERVTITCKASQDINSYLSWFQQKSGKSPKTLIYRANRLVDGVPSRFSGSGSGQDYSLTISSLEYEDMGIYYCLQYVEFPLTFGAGTKLELK",4.1,23.3,27.8,3.7,
"405B8H3 mouse-human chimeric antibody (antibody, V domains shown, also called mAb103-405B8H3) VH: QVQLQQSGAELVRPGASVTLSCKASGYTFTDYEMHWVKQTPVHGLEWIGATDPETGNSAYNQKFKGKAIMTADKSSSTAYMELRSLTSEDSAVYYCISTGWNDWGQGTSLTVSS VL: DIKMTQSPSSMYASLGERVTITCKASQDINSYLSWFQQKPGKSPKTLIYRADRLLDGVPSRFSGSGSGQDYSLTISSLEYGDMGIYYCLQYDEFPYTFGGGTKLEIK",,,,,17.5
"105F1E10 mouse-human chimeric antibody (antibody, V domains shown, also called mAb009-105F1E10) VH: EVQLQQSGPELVKPGASVKMSCRASGYTFTDFKMHWMKQSHGKSLEWIGYIAPNNGGTAYNQKFRGKATLTVNESSNTAYMELRSLTSEDSAVYYCVDWDDVDYWGQGTTLTVSS VL: DIKMTQSPSSMYASLGERVTITCKASQDINSYLSWFQQKSGKSPKTLIYRANRLVDGVPSRFSGSGSGQDYSLTISSLEYEDMGIYYCLQYVEFPLTFGAGTKLELK",,,,,-0.3
"409B11E12 mouse-human chimeric antibody (antibody, V domains shown, also called mAb104-409B11E12) VH: QVQLQQSGAELVRPGASVTLSCKASGYTFTDYEMHWVKQTTVHGLEWIGATDPETSYSAYNQKFKGKAILTADKSSSTAYMELRSLTSEDSAVYYCIATGWNDWGQGTSLTVSS VL: DLKMTQSPSSMYASLGERVTITCKASQDINSYLSWFQQKPGKSPKTLIYRANRLLDGVPSRFSGSGSGQDYSLTISSLEYEDMGIYYCLQYDEFPYTFGGGTKLEIK",,,,,24.4
"409D4E10 (mouse antibody purified from hybridoma) (antibody, V domains shown, also called mAb112-409D4E10) VH: QVQLQQSGAELVRPGASVTLSCKASGNTFTDYEMHWVKQTPVHGLEWIGATDPETDNTAYNQKFKGKAILTTDKSSSTAYMELRSLTSEDSAVYYCITSGWNDWGQGTSLTVSS VL: DIKMTQSPSSMYASLGERVTITCKASQDINSYLSWFQQKPGKSPKTLIYRANRLLDGVPSRFSGSGSGQDYSLTISSLEYEDMGIYYCLQYNEFPYTFGGGTKLEIK",3.5,13,44.7,2.8,
"409B11E12 (mouse antibody purified from hybridoma) (antibody, V domains shown, also called mAb104-409B11E12) VH: QVQLQQSGAELVRPGASVTLSCKASGYTFTDYEMHWVKQTTVHGLEWIGATDPETSYSAYNQKFKGKAILTADKSSSTAYMELRSLTSEDSAVYYCIATGWNDWGQGTSLTVSS VL: DLKMTQSPSSMYASLGERVTITCKASQDINSYLSWFQQKPGKSPKTLIYRANRLLDGVPSRFSGSGSGQDYSLTISSLEYEDMGIYYCLQYDEFPYTFGGGTKLEIK",3.3,13.4,39.6,2.5,
"409D4E10 mouse-human chimeric antibody (antibody, V domains shown, also called mAb112-409D4E10) VH: QVQLQQSGAELVRPGASVTLSCKASGNTFTDYEMHWVKQTPVHGLEWIGATDPETDNTAYNQKFKGKAILTTDKSSSTAYMELRSLTSEDSAVYYCITSGWNDWGQGTSLTVSS VL: DIKMTQSPSSMYASLGERVTITCKASQDINSYLSWFQQKPGKSPKTLIYRANRLLDGVPSRFSGSGSGQDYSLTISSLEYEDMGIYYCLQYNEFPYTFGGGTKLEIK",,,,,20.9
"556F6B8 mouse-human chimeric antibody (antibody, V domains shown, also called mAb123-556F6B8; 556F8B8) VH: RVQLKQSGPGLVQPSQSLSITCTVSGFSLIKYGVHWVRQSPGEGLEWLGVIWRGGITDYNAAFMSRLSITKDNSKSQVFFKMNSLQADDTAIYYCAKWDGPLAMDYWGQGTSVTVSS VL: DIVMTQSHKFLSTSVGDRVSITCKASQDVGTTVAWYQQKPGQSPKLLIYWASTRHTGVPDRFTGSGSGTDFTLTISNVQSEDLADYFCQQYSSYPYTFGGGTKLEIK",,,,,29.7
"556F6B8 (mouse antibody purified from hybridoma) (antibody, V domains shown, also called mAb123-556F6B8) VH: RVQLKQSGPGLVQPSQSLSITCTVSGFSLIKYGVHWVRQSPGEGLEWLGVIWRGGITDYNAAFMSRLSITKDNSKSQVFFKMNSLQADDTAIYYCAKWDGPLAMDYWGQGTSVTVSS VL: DIVMTQSHKFLSTSVGDRVSITCKASQDVGTTVAWYQQKPGQSPKLLIYWASTRHTGVPDRFTGSGSGTDFTLTISNVQSEDLADYFCQQYSSYPYTFGGGTKLEIK",3.9,16.1,48.1,2.8,

# From patent publication US20210155689A1 (SHANGHAI PHARMAEXPLORER, published 2021)
